Measurements as given in patent US20190360025A1.
One block for each substance: values may come before it.

Experiments:
[1] = target: tumor necrosis factor alpha (TNF-α), R&D Systems 210-TA-005 (UniProt P01375); assay: t-PLA, buffer; TNF-α 1.00E-09 M
[2] = target: tumor necrosis factor alpha (TNF-α), R&D Systems 210-TA-005 (UniProt P01375); assay: t-PLA, buffer; TNF-α 5.00E-07 M
[3] = target: tumor necrosis factor alpha (TNF-α), R&D Systems 210-TA-005 (UniProt P01375); assay: c-PLA 1X probes, buffer; TNF-α 1.00E-08 M
[4] = target: tumor necrosis factor alpha (TNF-α), R&D Systems 210-TA-005 (UniProt P01375); assay: c-PLA 1X probes, buffer; TNF-α 1.00E-10 M
[5] = target: tumor necrosis factor alpha (TNF-α), R&D Systems 210-TA-005 (UniProt P01375); assay: t-PLA 1X probes, buffer; TNF-α 1.00E-08 M
[6] = target: tumor necrosis factor alpha (TNF-α), R&D Systems 210-TA-005 (UniProt P01375); assay: c-PLA 1X probes, human plasma; TNF-α 1.00E-09 M
[7] = target: tumor necrosis factor alpha (TNF-α), R&D Systems 210-TA-005 (UniProt P01375); assay: t-PLA 1X probes, human plasma; TNF-α 5.00E-07 M
[8] = target: tumor necrosis factor alpha (TNF-α), R&D Systems 210-TA-005 (UniProt P01375); assay: c-PLA 10X probes, human plasma; TNF-α 1.00E-12 M
[9] = target: tumor necrosis factor alpha (TNF-α), R&D Systems 210-TA-005 (UniProt P01375); assay: t-PLA 10X probes, human plasma; TNF-α 1.00E-08 M
[10] = target: vascular endothelial growth factor (VEGF), R&D Systems 293-VE-010 (human) (UniProt P15692); assay: c-PLA, buffer; VEGF 1.00E-12 M
Sequence of UniProt P15692 (P15692 other isoform, or with tags, fused parts or gaps limits assumed): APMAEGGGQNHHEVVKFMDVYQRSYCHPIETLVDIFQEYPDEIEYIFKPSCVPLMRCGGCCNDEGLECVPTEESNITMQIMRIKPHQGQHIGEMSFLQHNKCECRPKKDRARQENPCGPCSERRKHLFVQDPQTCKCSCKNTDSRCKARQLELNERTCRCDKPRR

[11] = target: vascular endothelial growth factor (VEGF), R&D Systems 293-VE-010 (human) (UniProt P15692); assay: t-PLA, buffer; VEGF 1.00E-11 M
[12] = target: vascular endothelial growth factor (VEGF), R&D Systems 293-VE-010 (human) (UniProt P15692); assay: c-PLA, human plasma; VEGF 1.00E-11 M
[13] = target: vascular endothelial growth factor (VEGF), R&D Systems 293-VE-010 (human) (UniProt P15692); assay: c-PLA, human plasma; VEGF 1.00E-13 M
[14] = target: vascular endothelial growth factor (VEGF), R&D Systems 293-VE-010 (human) (UniProt P15692); assay: c-PLA, human plasma; VEGF 1.00E-14 M
[15] = target: vascular endothelial growth factor (VEGF), R&D Systems 293-VE-010 (human) (UniProt P15692); assay: t-PLA, human plasma; VEGF 1.00E-08 M
[16] = target: vascular endothelial growth factor (VEGF), R&D Systems 293-VE-010 (human) (UniProt P15692); assay: t-PLA, human plasma; VEGF 1.00E-09 M
[17] = target: vascular endothelial growth factor (VEGF), R&D Systems 293-VE-010 (human) (UniProt P15692); assay: t-PLA, human plasma; VEGF 1.00E-13 M
[18] = target: vascular endothelial growth factor (VEGF), R&D Systems 293-VE-010 (human) (UniProt P15692); assay: t-PLA, human plasma; VEGF 1.00E-14 M
[19] = target: vascular endothelial growth factor (VEGF), R&D Systems 293-VE-010 (human) (UniProt P15692); assay: c-PLA, chicken plasma; VEGF 1.00E-08 M
[20] = target: vascular endothelial growth factor (VEGF), R&D Systems 293-VE-010 (human) (UniProt P15692); assay: c-PLA, chicken plasma; VEGF 1.00E-09 M
[21] = target: vascular endothelial growth factor (VEGF), R&D Systems 293-VE-010 (human) (UniProt P15692); assay: c-PLA, chicken plasma; VEGF 1.00E-12 M
[22] = target: vascular endothelial growth factor (VEGF), R&D Systems 293-VE-010 (human) (UniProt P15692); assay: t-PLA, chicken plasma; VEGF 1.00E-08 M
[23] = target: vascular endothelial growth factor (VEGF), R&D Systems 293-VE-010 (human) (UniProt P15692); assay: t-PLA, chicken plasma; VEGF 1.00E-09 M
[24] = target: vascular endothelial growth factor (VEGF), R&D Systems 293-VE-010 (human) (UniProt P15692); assay: t-PLA, chicken plasma; VEGF 1.00E-11 M
[25] = target: vascular endothelial growth factor (VEGF), R&D Systems 293-VE-010 (human) (UniProt P15692); assay: t-PLA, chicken plasma; VEGF 1.00E-12 M
[26] = target: vascular endothelial growth factor (VEGF), R&D Systems 293-VE-010 (human) (UniProt P15692); assay: c-PLA with preamplification; VEGF 1.00E-14 M
[27] = target: vascular endothelial growth factor (VEGF), R&D Systems 293-VE-010 (human) (UniProt P15692); assay: t-PLA with preamplification; VEGF 1.00E-10 M
[28] = target: vascular endothelial growth factor (VEGF), R&D Systems 293-VE-010 (human) (UniProt P15692); assay: t-PLA with preamplification; VEGF 1.00E-12 M

Sequence of UniProt P01375 (P01375 77-233 limits assumed): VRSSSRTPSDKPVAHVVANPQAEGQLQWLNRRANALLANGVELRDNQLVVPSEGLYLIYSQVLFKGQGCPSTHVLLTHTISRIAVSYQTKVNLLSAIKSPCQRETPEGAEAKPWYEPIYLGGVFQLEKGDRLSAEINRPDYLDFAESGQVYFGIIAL

Substance: affinity-purified polyclonal anti-TNF-α antibody (R&D Systems AF-210-NA)
Counts [1]: 1.98e+07
SBR [1]: 116
Counts [2]: 1.33e+08
SBR [2]: 780
Counts [3]: 11600
SBR [3]: 730
Counts [4]: 260
Counts [5]: 5.4e+07
SBR [5]: 65
Counts [6]: 1310
SBR [6]: 17
Counts [7]: 2.12e+08
SBR [7]: 892
Counts [8]: 2260
Counts [9]: 3.81e+08
SBR [9]: 33

Counts [10]: 619
SBR [10]: 21
Counts [11]: 4.21e+07
SBR [11]: 122
Counts [12]: 1770
SBR [12]: 6.8
Counts [13]: 310
SBR [13]: 1.2
Counts [14]: 292
SBR [14]: 1.1
Counts [15]: 8.23e+07
SBR [15]: 51
Counts [16]: 1.4e+08
SBR [16]: 86
Counts [17]: 1.79e+06
SBR [17]: 1.1
Counts [18]: 1.63e+06
Counts [19]: 40800
SBR [19]: 4420
Counts [20]: 73600
SBR [20]: 7980
Counts [21]: 198
SBR [21]: 22
Counts [22]: 1.49e+08
SBR [22]: 2230
Counts [23]: 2.39e+08
SBR [23]: 3580
Counts [24]: 7.94e+06
SBR [24]: 119
Counts [25]: 787000
SBR [25]: 12
Counts [26]: 90200
SBR [26]: 1.5
Counts [27]: 1.78e+08
SBR [27]: 1010
Counts [28]: 1.26e+06
SBR [28]: 7.1
Substance: affinity-purified polyclonal anti-VEGF antibody (R&D Systems AF-293-NA)
